Results on one substance are retold here after article PMC9398157.

One may read the Kd as a measure of binding affinity in units of concentration. A high value points to a looser complex. Usually EC50 stands for the concentration that produces a half-maximal response. Read a low EC50 as greater potency.

In test [1] the target is Death receptor 5 (human DR5), as used in SPR, Octet and ELISA (human) (UniProt O14763). Briefly: SPR. For orientation: Surface plasmon resonance follows binding to a sensor surface in real time, without labels.
Test [2] concerns the target DR5 on Colo205 and H-EMC-SS cells (Homo sapiens) (UniProt O14763). Briefly: flow cytometry on cells. (In flow cytometry, cells or beads pass a laser one at a time.)
Test [3] has the same target. The test is described as follows: flow cytometry on cells. This is another data set of the same source.
The target of test [4] is Death receptor 5 (human DR5), as used in SPR, Octet and ELISA (human) (UniProt O14763). The test is described as follows: SPR. The source holds these as a separate data set.
Test [5] concerns the target DR5 on Colo205 and H-EMC-SS cells (Homo sapiens) (UniProt O14763).

Where “and” joins values, the source holds several entries; their conditions need not be identical. Equal values may be shown once. Read-outs that look alike come from different tables or passages of the source. Some results are limits rather than exact numbers.

On to IGM-8444 (antibody), for which the Kd is 85 nM in test [1] and less than 0.011 nM in test [4]. Further, the EC50 in test [2] came out at 0.073 nM; in test [3], 0.2 nM. In test [5], the cytotoxicity on Colo205 cells, IC50 (CellTiter-Glo viability after 24 hours) was 1.1 ng/mL and 1.3 pmol/L. Moreover, the cytotoxicity on H-EMC-SS cells, IC50 (CellTiter-Glo viability after 24 hours) in test [5] is 0.32 ng/mL and 0.37 pmol/L.
